Among the data in publication PMC314469, “Protein Interaction Networks by Proteome Peptide Scanning” (PLoS Biology, 2004) are normalised SPOT signal, Boehringer light units (BLU); mean over the file's lines of this peptide values, retold here.

What all share (test): SPOT array
Assay [1] concerns the target T1, Yfr024 SH3 (LSB3_YEAST), P43603.
T1 chain: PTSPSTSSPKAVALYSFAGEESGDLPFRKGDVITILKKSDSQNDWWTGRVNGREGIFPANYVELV

For assay [2], the target named is T2, Boi1 SH3 (BOI1_YEAST), P38041.
T2 chain: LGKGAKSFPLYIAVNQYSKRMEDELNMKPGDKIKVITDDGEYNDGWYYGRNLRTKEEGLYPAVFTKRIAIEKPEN

The target in assay [3] is T3, Boi2 SH3 (BOI2_YEAST), P39969.
T3 chain: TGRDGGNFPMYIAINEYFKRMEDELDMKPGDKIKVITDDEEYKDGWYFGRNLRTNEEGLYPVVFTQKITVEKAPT

Assay [4] deals with T4, Yhr016c SH3 (YSC84_YEAST), P32793.
T4 chain: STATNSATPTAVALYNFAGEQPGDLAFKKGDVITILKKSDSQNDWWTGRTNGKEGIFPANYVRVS

Assay [5] addresses T5, Rvs167 SH3 (RV167_YEAST), P39743.
T5 chain: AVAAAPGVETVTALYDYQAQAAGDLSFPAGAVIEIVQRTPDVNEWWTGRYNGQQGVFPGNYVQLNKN

B1: YNL284C-B 1135-1148 (peptide)
chain: DLPPEPPTKLSDSF
On to B1, for which the normalised SPOT signal, Boehringer light units (BLU); mean over the file's lines of this peptide in assay [1] amounted to 56.5; in assay [2], 75; in assay [3] it was 30.6; in assay [4] it was 105; in assay [5], 30.9.

B2: YIL067C 85-98 (peptide)
chain: DEPPSFPKRWGWLK
Take B2: the normalised SPOT signal, Boehringer light units (BLU); mean over the file's lines of this peptide was 9640 in assay [1]; 77.3 in assay [2]; 112 in assay [3]; 2420 in assay [4]; 62.6 in assay [5].

B3: YPL057C 43-56 (peptide)
chain: DLNPDAPPKPQLIP
Consider B3, for which the normalised SPOT signal, Boehringer light units (BLU); mean over the file's lines of this peptide amounted to 88.2 in assay [1]; 96.1 in assay [2]; 41.5 in assay [3]; 65.9 in assay [4]; 11 in assay [5].

B4: YGL165C 149-162 (peptide)
chain: DERPFRPKRTSRSA
In the case of B4, the normalised SPOT signal, Boehringer light units (BLU); mean over the file's lines of this peptide in assay [1] was found to be 7440; in assay [2] it was 632; in assay [3], 169; in assay [4] it was 992; in assay [5], 111.

B5: YGR130C 350-363 (peptide)
chain: DESPIDPSKAPKVP
As for B5, the normalised SPOT signal, Boehringer light units (BLU); mean over the file's lines of this peptide turned out to be 0 in assay [1]; 110 in assay [2]; 11.7 in assay [3]; 120 in assay [4]; 0 in assay [5].

B6: YBL034C 1313-1326 (peptide)
chain: DDTPSIPSKISSKS
On to B6, for which the normalised SPOT signal, Boehringer light units (BLU); mean over the file's lines of this peptide came out at 124 in assay [1]; 63.8 in assay [2]; 115 in assay [3]; 188 in assay [4]; 247 in assay [5].

B7: YJL127C 172-185 (peptide)
chain: DLKPAYPGRSAHVV
Turning to B7, the normalised SPOT signal, Boehringer light units (BLU); mean over the file's lines of this peptide in assay [1] was determined as 8830; in assay [2] it was 20.7; in assay [3] it was 77.4; in assay [4] it was 1390; in assay [5] it was 31.5.

B8: YMR125W 18-31 (peptide)
chain: DFRPRMPKRQRIPP
Take B8: the normalised SPOT signal, Boehringer light units (BLU); mean over the file's lines of this peptide in assay [1] worked out at 835; in assay [2] it was 776; in assay [3], 96.7; in assay [4], 211; in assay [5], 87.3.

B9: YNL134C 130-143 (peptide)
chain: DKLPEGPVKSLEGA
In the case of B9, the normalised SPOT signal, Boehringer light units (BLU); mean over the file's lines of this peptide in assay [1] turned out to be 87.8; in assay [2] it was 35.5; in assay [3], 73.3; in assay [4], 89.5; in assay [5], 55.7.

B10: YBR202W 629-642 (peptide)
chain: DFTPVEPSKMREYI
Consider B10, for which the normalised SPOT signal, Boehringer light units (BLU); mean over the file's lines of this peptide came out at 15.3 in assay [1]; 64.2 in assay [2]; 59.7 in assay [3]; 179 in assay [4]; 277 in assay [5].

B11: YOR335C 774-787 (peptide)
chain: DKLPFSPIKEKKLK
With B11, the normalised SPOT signal, Boehringer light units (BLU); mean over the file's lines of this peptide in assay [1] was 64.1; in assay [2], 466; in assay [3], 39.8; in assay [4], 156; in assay [5] it was 118.

B12: YOL033W 38-51 (peptide)
chain: DIHPSLPVRTRFAP
As to B12, the normalised SPOT signal, Boehringer light units (BLU); mean over the file's lines of this peptide in assay [1] was found to be 24600; in assay [2], 6780; in assay [3] it was 30.2; in assay [4], 5090; in assay [5], 943.

B13: YFL007W 51-64 (peptide)
chain: DGRPHSPLRARSAT
Take B13: the normalised SPOT signal, Boehringer light units (BLU); mean over the file's lines of this peptide turned out to be 1500 in assay [1]; 1690 in assay [2]; 21.9 in assay [3]; 193 in assay [4]; 75.7 in assay [5].

B14: YJL194W 18-31 (peptide)
chain: DDAPATPPRPLKRK
For the molecule B14, the normalised SPOT signal, Boehringer light units (BLU); mean over the file's lines of this peptide worked out at 26500 in assay [1]; 242 in assay [2]; 101 in assay [3]; 13400 in assay [4]; 4430 in assay [5].

B15: YER152C 237-250 (peptide)
chain: DELPSPPLRMVHID
Turning to B15, the normalised SPOT signal, Boehringer light units (BLU); mean over the file's lines of this peptide in assay [1] is 7450; in assay [2], 128; in assay [3], 28.3; in assay [4], 6740; in assay [5], 124.

B16: YBL042C 90-103 (peptide)
chain: DHKPENPIRTFKDL
For the molecule B16, the normalised SPOT signal, Boehringer light units (BLU); mean over the file's lines of this peptide in assay [1] was determined as 238; in assay [2], 167; in assay [3] it was 122; in assay [4] it was 175; in assay [5] it was 120.

B17: YCR095C 250-263 (peptide)
chain: SREPEVPQRLLTLI
Regarding B17, the normalised SPOT signal, Boehringer light units (BLU); mean over the file's lines of this peptide in assay [1] is 1140; in assay [2], 60; in assay [3], 67.2; in assay [4], 176; in assay [5], 42.9.

B18: YPL175W 432-445 (peptide)
chain: DLAPKWPKKTVSNE
Take B18: the normalised SPOT signal, Boehringer light units (BLU); mean over the file's lines of this peptide in assay [1] stood at 1590; in assay [2], 48.2; in assay [3] it was 14.6; in assay [4], 110; in assay [5], 7.2.

B19: YPR060C 81-94 (peptide)
chain: DETPFFPDKIQKSF
As for B19, the normalised SPOT signal, Boehringer light units (BLU); mean over the file's lines of this peptide came to 164 in assay [1]; 37.6 in assay [2]; 16.5 in assay [3]; 0 in assay [4]; 23.6 in assay [5].
